The nature of the data set: yeast display, Sf9 membrane polyspecificity reagent, FACS + sequencing; frameworks hold sequencing errors. An outline of the steps:
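In a synthetic yeast display library (Saccharomyces cerevisiae BJ5465), nanobody expression was induced with galactose for 36–48 hours. FACS gates were set low and high (top ~1%) using anti-HA fluorescence for expression and streptavidin fluorescence for binding of the Sf9 membrane reagent. Each polyreactivity label is drawn from the gate of origin.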
For the sequence “QVQLVESGGGLVQAGGSLRLSCDASGSIFDGYGMGWYRQAPGKERELVASITWNDGSTYYAASVKGRFTISRDNATNTVYLQMNSLKPEDTAVYYCAADQWGYEYDYWGQGTQVTVSS”, the “polyreactivity (PSR sort gate)” value is on record as “low polyreactivity”.

With “QVQLVESGGGLVQPGGSLRLSCAASGSIFPYYAKGWYRKAPGKERELVADITSSGGSTYYADSVMGRFTISRDNAKNTVYLQMNSLKPEDTAVYYCAADGAVVSSSRKFGYWGQGTQVTVSS”, the “polyreactivity (PSR sort gate)” value is on record as “low polyreactivity”. As for “QVQLVESGGGLFQAGGSLRLSCAASGITLAYNAMGWYRQAPGKEREFVAAIDVSGGRTYYADSVKVRFTISRDKSKNTVNLQMNSLNPEDTAVYYCAADVAEFSVGYWQDYDYWGQGTQVTVSS”, the entry is “low polyreactivity”; as for “QVQLVESGGGLVQAGGSLRLSCAASGITFYFYAMGWYRQAPWKERELVAAITSTGTSTYYADSVKGRFTISRDNAKNTVYLQMNILKPEDTAVYYCNVTDYHTLWYDPEYYWGQGTQVTVSS”, “low polyreactivity”. The same measure for “QVQLVESGGGLVQAGGSLRLSCAASGSIFSRYAMGWYRQAPGKERELVAAISQRAGSTYYADSVKGRFTISRDNAKNTVYLQMNSLKPEDTAVYYCAARRRGRKERGEDYWGQGTQVTVSS”: “high polyreactivity”; for “QVQLVESGGGVVQAGGSLRLSCAASGIIFDGNAMGWYRQAPGKERELVAAITSSTDSTYYADSVKGRFTFSRDNAKNTVYLQMNSLKPEDTAVYYCAADYPSKTFDYWGQGTQVTVSS”: “low polyreactivity”; for “QVHLVDSGGGLVQAGGSLRLSCAASGFNFTYYGMGSYRQAPGKERELVAAISESCGSTYYADSVKGRFTISRDNAKNTVYLQMTSLKPEDTAVYYCAADVTKRASRDYYWGQGTQVTVSS”: “high polyreactivity”.

On to “QVQLVESGGGLVQAGGSLRLSCAASGFIFRVYAMGWYRQAPGKERELVAAMSYSGGSTYYADSVKGRFTISRDNAKNTVYLQMNSLKPEDTAVYYCAAESYVSRYPYGYWGQGTQVTVSS”, for which the “polyreactivity (PSR sort gate)” value was “high polyreactivity”. The same measure for “QVQLVESGGGLVQAGGSLRLSCAASGIIFFRYAMGWYRQAPGKERELVAAISLSGGRTYYADSVKGRFTISRDNANNTVYLQMNSVKPEDTAVYYCNTLHRYSSQRYDYWGQGTQVTVSS”: “high polyreactivity”. As for “QVQLVESGGGLVQAGGSHRLSCAASGSIFKRNAMRSYRQAPGKERELVAAISRSGGSTYYADSVKGRFTISRDFAKNTVYLQMNSLKPEDTAVYYCDARRKLGYGSENDYWGQGTQVTVSS”, the entry is “high polyreactivity”. The same measure for “QVQLVESGGGLVQAGGSLRLSCAASGRIFNHNTMGWYRQAPGKERELVAAISRSGASTYYADSVKGRFTISRDNAKNTVYLQMNSLKPEDTAVYYCNAATYADGITIYDYWGQGTQVTVSS”: “low polyreactivity”. With “QVQLVESGGGLVQAGGSLRLSSAASGRTFWNNAMGWYRQAPGKERELVAAITSGGRTNYADSVKGRFTISRDNAKNTVYLQMNSLKPEDTAVYYCAAVGYVIYDYWVQGTQVTVSS”, the “polyreactivity (PSR sort gate)” value is on record as “low polyreactivity”. For “QVQLVESGGGLVQAGGSLRLSCAASGSIFNTYVMGWYRQAPGKERELVAAITYSAGGDTYYADSVKGRFTISRDNAKNTVYLQMNSLKPEDTAVYYCAAEYTYLDAYGSYDYWGQGTQVTVSS”, the “polyreactivity (PSR sort gate)” value was “low polyreactivity”.

For “QVQLVESGGGLVQAGGSLRLSCAASGLTFGVNAMGWYRQAPGKERELVAAISGSGGRTNYADSVKGRFTISRDNAKNTVYLQMNSLKPEDTAVYYCNARFPDWALSEISHSTTYGYWGQGTQVTVSS”, the “polyreactivity (PSR sort gate)” value was “low polyreactivity”. As for “QVQLVESGGGLVQAGGSLRLSCAASGGTFSYYAMGWYRQAPGKERELFASISSGGSTYYADSVKGRFTISRDNAKNTVYLQMNSLKPEDTAVYYCNAEARSRRYRYDYWGQGTQVTVSS”, the entry is “high polyreactivity”; as for “HVQLVESGGGLVQAGGSLRLSCAASGRIFSVYTMGWYRQAPGKDRELVATISSGGRTNYADSVKGRFTISRDNAKNTVYLQMNSLKPEDTAVYYCAAVPYGFVGYDDYWGQGTQVTVSS”, “low polyreactivity”.

Values taken from the nanobody polyreactivity screen of Harvey et al. (2022).
